Measured values published in patent US20160090426A1 (WUHAN YZY BIOPHARMA, published 2016).

Experiments:
[1] = molecular target: T1, EpCAM on EpCAM-positive HCT116 cells (UniProt P16422 24-314, limits assumed); assay: flow cytometry on HCT116 cells, PE anti-human IgG Fc, KD fitted from mean fluorescence intensity
T1 construct: whole, on cells; Tumor cell surface antigen; also called CD326
T1 sequence (looked up): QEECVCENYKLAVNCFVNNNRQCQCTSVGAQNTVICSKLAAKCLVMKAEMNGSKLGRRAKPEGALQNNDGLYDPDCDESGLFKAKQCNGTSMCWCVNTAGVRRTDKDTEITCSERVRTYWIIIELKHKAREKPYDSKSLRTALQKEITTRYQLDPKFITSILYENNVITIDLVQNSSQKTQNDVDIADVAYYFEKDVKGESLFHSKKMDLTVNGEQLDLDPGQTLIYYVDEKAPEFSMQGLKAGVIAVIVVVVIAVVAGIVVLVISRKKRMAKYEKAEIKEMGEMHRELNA
Description: (§1) Enough HCT116 cells are cultured, digested with 0.25% trypsin and then collected by centrifugation. In the meantime, the bispecific antibody was diluted according to the concentration beginning from 10 ug/ml and ten-fold gradient dilution to obtain twelve concentration gradients for later use.

[2] = molecular target: T2, CD3 on CD3-positive Jurkat cells; assay: flow cytometry on Jurkat cells, KD fitted from mean fluorescence intensity
T2 construct: whole, on cells
Description: as §1
Enough Jurkat suspension cells were cultured and collected by centrifugation. The same as the steps described in the example forementioned, in the following experimental process, the cells resuspended with 100 ul PBS were detected on an instrument, and the binding affinity KD value of the bispecific antibody and the Jurkat cells was analyzed and calculated according to the mean fluorescence intensity by using software GraphPadPrism 5.0.

[3] = molecular target: T1, EpCAM on EpCAM-positive HCT116 cells; assay: cell-based or functional assay
[4] = molecular target: T2, CD3 on CD3-positive Jurkat cells; assay: cell-based or functional assay

B1: EpCAM×CD3 bispecific antibody M701 (bispecific antibody, human IgG1, kappa)
heavy: EVQLLEQSGAELVRPGTSVKISCKASGYAFTNYWLGWVKQRPGHGLEWIGDIFPGSGNIHYNEKFKGKATLTADKSSSTAYMQLSSLTFEDSAVYFCARLRNWDEPMDYWGQGTTVTVSSASTKGPSVFPLAPSSKSTSGGTAALGCLVKDYFPEPVTVSWNSGALTSGVHTFPAVLQSSGLYSLSSVVTVPSSSLGTQTYICNVNHKPSNTKVDKKVEPKSCDKTHTCPPCPAPELLGGPSVFLFPPKPKDTLMISRTPEVTCVVVDVSHEDPEVKFNWYVDGVEVHNAKTKPREEQYNSTYRVVSVLTVLHQDWLNGKEYKCKVSNKALPAPIEKTISKAKGQPREPQVYTLPPSRDELTKNQVSLWCLVKGFYPSDIAVEWESNGQPENNYDTTPPVLDSDGSFFLYSDLTVDKSRWQQGNVFSCSVMHEALHNHYTQKSLSLSPGK
light: ELVMTQSPSSLTVTAGEKVTMSCKSSQSLLNSGNQKNYLTWYQQKPGQPPKLLIYWASTRESGVPDRFTGSGSGTDFTLTISSVQAEDLAVYYCQNDYSYPLTFGAGTKLEIKRTVAAPSVFIFPPSDEQLKSGTASVVCLLNNFYPREAKVQWKVDNALQSGNSQESVTEQDSKDSTYSLSSTLTLSKADYEKHKVYACEVTHQGLSSPVTKSFNRGEC
chain: not shown
notes: Heterodimer of one anti-EpCAM heavy/light chain pair (IgG form) and one anti-CD3 ScFv-Fc; also called EpCAM×CD3 MSBODY; EpCAM×CD3 MSBODY bispecific antibody
- Kd [1]: 9.6 nM
- Kd [2]: 14.3 nM
- ratio of bifluorescence via flow cytometer detection (double positive CFSE-HCT116 / PKH-26-Jurkat cells) [3]: 27.5%
- ratio of bifluorescence via flow cytometer detection (double positive CFSE-HCT116 / PKH-26-Jurkat cells) [4]: 27.5%
